In patent publication US20210355194A1 (TWIST BIOSCIENCE, published 2021):
Numbering of substitutions follows the chain as printed.

B1: variant 5-67 (Fc fusion)
VHH: EVQLVESGGGLVQPGGSLRLSCAASGFNVNDYAMGWFRQAPGKEREFVAGITSSVGVTNYADSVKGRFTISADNSKNTAYLQMNSLKPEDTAVYYCAADIFFVNWGRGTLVTVSS
B2: variant 5-56 (Fc fusion)
VHH: EVQLVESGGGLVQPGGSLRLSCAASGRTFSSNMGWFRQAPGKEREFVARIFGGDRTLYADSVKGRFTISADNSKNTAYLQMNSLKPEDTAVYYCADINGDWGQGTLVTVSS
B3: variant 5-47 (Fc fusion)
VHH: EVQLVESGGGLVQPGGSLRLSCAASGFTFGSYDMGWFRQAPGKEREFVTAINWSGARTAYADSVKGRFTISADNSKNTAYLQMNSLKPEDTAVYYCAARSVYSYEYNWGQGTLVTVSS
B4: variant 5-1 (Fc fusion)
VHH: EVQLVESGGGLVQPGGSLRLSCAASGGTFSSIGMGWFRQAPGKEREFVAAISWDGGATAYADSVKGRFTISADNSKNTAYLQMNSLKPEDTAVYYCAKEDVGKPFDWGQGTLVTVSS
B5: variant 5-37 (Fc fusion)
VHH: EVQLVESGGGLVQPGGSLRLSCAASGSTFSINAMGWFRQAPGKEREFVGGISRSGATTNYADSVKGRFTISADNSKNTAYLQMNSLKPEDTAVYYCAADGVPEYSDYASGPVWGQGTLVTVSS
B6: variant 5-20 (Fc fusion)
VHH: EVQLVESGGGLVQPGGSLRLSCAASGRTIVPYTMGWFRQAPGKERELVAAISPSAFTEYADSVKGRFTISADNSKNTAYLQMNSLKPEDTAVYYCAARRWGYDWGQGTLVTVSS
B7: variant 2-2 (antibody, V domains shown)
VH: EVQLLESGGGLVQPGGSLRLSCAASGFTFSRHAMNWVRQAPGKGLEWVSGISGSGDETYYADSVKGRFTISRDNSKNTLYLQMNSLRAEDTAVYYCARDLPASYYDSSGYYWHNGMDVWGQGTLVTVSS
VL: DIQMTQSPSSLSASVGDRVTITCRASQTINTYLNWYQQKPGKAPKLLIYSASTLQSGVPSRFSGSGSGTDFTLTISSLQPEDFATYYCQQSYSTFTFGQGTKVEIK
B8: variant 2-4 (antibody, V domains shown)
VH: EVQLLESGGGLVQPGGSLRLSCAASGFTFSDFAMAWVRQAPGKGLEWVSAISGSGDITYYADSVKGRFTISRDNSKNTLYLQMNSLRAEDTAVYYCAREADGLHSPWHFDLWGQGTLVTVSS
VL: DIQMTQSPSSLSASVGDRVTITCRASQSIDTYLNWYQQKPGKAPKLLIYAASALASGVPSRFSGSGSGTDFTLTISSLQPEDFATYYCQQSYSAPPYTFGQGTKVEIK
B9: variant 2-8 (antibody, V domains shown)
VH: B8 VH
VL: B8 VL
B10: variant 2-12 (antibody, V domains shown)
VH: EVQLLESGGGLVQPGGSLRLSCAASGFTFSDYPMNWVRQAPGKGLEWVSTISGSGGITFYADSVKGRFTISRDNSKNTLYLQMNSLRAEDTAVYYCVRHDEYSFDYWGQGTLVTVSS
VL: B8 VL with T31N, A50G, A51V, A55Q, Y92H, T98F
B11: variant 2-5 (antibody, V domains shown)
VH: B8 VH
VL: B8 VL with D30H
B12: variant 2-13 (antibody, V domains shown)
VH: B10 VH with T50A, G56D, I57N, F59Y
VL: B8 VL with A50G, A55E, Y92H, T98F
B13: 2-19 (antibody, V domains shown)
VH: EVQLLESGGGLVQPGGSLRLSCAASGFTFSSYTMSWVRQAPGKGLEWVSVISGSGGSTYYADSVKGRFTISRDNSKNTLYLQMNSLRAEDTAVYYCAREGYRDYLWYFDLWGQGTLVTVSS
VL: DIQMTQSPSSLSASVGDRVTITCTGTSTDVGSYNLVSWYQQKPGKAPKLLIYEGTKRPSGVPSRFSGSGSGTDFTLTISSLQPEDFATYYCCSYAGSYTSVVFGQGTKVEIK
notes: also called variant 2-19
B14: 2-18 (antibody, V domains shown)
VH: EVQLLESGGGLVQPGGSLRLSCAASGFTFSSYAMYWVRQAPGKGLEWVSAISGSAGSTYYADSVKGRFTISRDNSKNTLYLQMNSLRAEDTAVYYCARDTNDFWSGYSIFDPWGQGTLVTVSS
VL: DIQMTQSPSSLSASVGDRVTITCTGTSSDIGSYNLVSWYQQKPGKAPKLLIYEGTKRPSGVPSRFSGSGSGTDFTLTISSLQPEDFATYYCCSYAGSRTYVFGQGTKVEIK
notes: also called variant 2-18
B15: variant 2-2 (antibody, V domains shown)
VH: B7 VH
VL: B7 VL
B16: variant 2-5 (antibody, V domains shown)
VH: B8 VH
VL: B8 VL with D30H
B17: variant 5-34 (Fc fusion)
VHH: EVQLVESGGGLVQPGGSLRLSCAASGRTFSRYIMGWFRQAPGKEREFVAAISWSGGDNTYYADSVKGRFTISADNSKNTAYLQMNSLKPEDTAVYYCAAYRIVVGGTSPGDWRWGQGTLVTVSS

target: T1, SARS-COV2-S1 RBD (mouse IgG2Fc tag) (SARS-CoV-2, UniProt P0DTC2 319-537); test: not given

Binder	IC50 [nM]
B1	0.76
B2	0.68
B3	0.8

target: T2, Acro SARS-CoV-2 (COVID-19) S1 protein (SARS-CoV-2, UniProt P0DTC2 16-685); test: SPR
T2 construct: also called SARS-CoV-2 S1

Binder	Kd [nM]
B1	22.1
B4	15.1
B2	54.3
B3	27.7
B5	30.2
B6	14.3

target: SARS-CoV-2 S1 (subunit 1) protein (SARS-CoV-2, UniProt P0DTC2 16-685); test: phage ELISA

Binder	screening ELISA (Avg), fold over background [fold over background]
B7	23.4
B8	15.5
B9	32.4
B10	18.2
B11	30.8
B12	19.1

target: T3, COVID S1 RBD Fc fusion (Antigen 1) (SARS-CoV-2, UniProt P0DTC2 319-541); test: phage ELISA
T3 construct: domain: S1 RBD

Binder	specificity ELISA, fold over background [fold over background]	specificity ELISA, percent binding relative to Acro S1 [%]
B7	39.6	100
B8	38.8	103
B9	36.5	102
B10	40.3	101
B11	35.9	93.7
B12	32.1	118

target: T4, S1-Fc (SARS-CoV-2, UniProt P0DTC2 14-685); test: phage ELISA
T4 construct: also called S1 Fc fusion protein

Binder	specificity ELISA, fold over background [fold over background]	specificity ELISA, percent binding relative to Acro S1 [%]
B7	4.7	12
B8	7.2	19
B9	5.4	15
B10	14.7	37
B11	24.3	63.3
B12	3.7	13.4

target: T5, COVID S1 RBM Fc fusion (Antigen 2) (SARS-CoV-2, UniProt P0DTC2 437-508); test: phage ELISA
T5 construct: domain: S1 RBM

Binder	specificity ELISA, fold over background [fold over background]	specificity ELISA, percent binding relative to Acro S1 [%]
B7	1.1	2.8
B8	1.2	3.1
B9	1.1	3.1
B10	1.1	2.9
B11	1.1	3
B12	0.9	3.1

target: SARS-CoV-2 spike on live SARS-CoV-2 virus (SARS-CoV-2, UniProt P0DTC2 14-1273); test: cell-based or functional assay

Binder	EC80 [µg/mL]
B1	1.57
B2	105
B3	2.46

target: T6, SARS-CoV-2 S1 protein (SARS-CoV-2, UniProt P0DTC2 16-685); test: phage ELISA screen on S1, mean
T6 construct: also called SARS-CoV-2 Spike Glycoprotein S1; S1 (subunit 1)

Binder	ELISA(Avg) [fold over background]
B13	21.7
B14	43

target: T6, SARS-CoV-2 S1 protein; test: phage ELISA screen on S1, mean; remark: another data set of the same source

Binder	ELISA(Avg) [fold over background]
B13	21.7
B14	43

target: T1, SARS-COV2-S1 RBD (mouse IgG2Fc tag); test: FACS, blocks S1 RBD-mFc binding to ACE2 on Vero E6

Binder	IC50 [nM]
B15	0.56
B4	0.75
B16	2.15
B17	1.21
B5	1.01
B6	1.23

target: T1, SARS-COV2-S1 RBD (mouse IgG2Fc tag); test: FACS, blocks S1 RBD-mFc binding to ACE2 on Vero E6; remark: another data set of the same source

Binder	IC50 [nM]
B15	0.56
B16	2.15

target: T1, SARS-COV2-S1 RBD (mouse IgG2Fc tag); test: column not explained; likely FACS, S1 RBD on Vero E6

Binder	MFI Fold Decrease [fold]
B4	10
B17	5.69
B5	8.19
B6	12.4
